Measured values published in the supplement of paper PMC10724198.
± gives the standard deviation of the averaged measurements.

Test system: Saccharomyces cerevisiae
Experiment: protein stability index of tFT-peptide fusion (C-terminal peptide) (PSI (0-1 scale)); higher = more stable (slower turnover)
Details: genetic background: wild type; temperature: 37 C
Protocol: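 MPS profiling in S. cerevisiae of the tFT-X12 degron library: putative degron peptides plus stable controls, 12 aa, fused to the C-terminus of a sfGFP-mCherry timer. Cells are FACS-sorted into 8 mCherry/sfGFP bins and deep-sequenced. PSI runs from 0 (unstable) to 1 (stable). Backgrounds are wild type, das1Δ and doa10Δ at 30 °C, and wild type, das1Δ, cdc34-1 and cdc53-1 at 37 °C; 2-3 technical replicates each.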
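Further: PSI is a weighted mean of sequencing reads over stability bins, variants kept only with over 10 reads, mCherry proximal and sfGFP distal, peptide attached via GGGS linker.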

Sequence | protein stability index
PPSRVSIRLLIR | 0.448 ± 0.013
PRFLRWLFSLLI | 0.739 ± 0.041
PRINTFVVVRVC | 0.0609 ± 0.0015
PSCLLVAPRFSS | 0.715 ± 0.0045
PSFSLLRSLTLI | 0.413 ± 0.027
PTYTKYRTRQIN | 0.156 ± 0.024
PVILISWQLRCY | 0.0417 ± 0.0029
PVPPRVNLLRVS | 0.475 ± 0.011
PVWLSFHFFLCA | 0.469 ± 0.0063
QIDYSVYIFALG | 0.454 ± 0.0065
QRFASFFFLHLS | 0.251 ± 0.011
QRTNTIINKRIV | 0.705 ± 0.041
RALSLPPLLLVL | 0.4351 ± 0.0017
RCIFYHSPVLCL | 0.511 ± 0.041
RCQILSYCLLFV | 0.4523 ± 0.0013
RCSLRLRFIFVR | 0.116 ± 0.0027
RFFFASRYIECF | 0.281 ± 0.028
RFWFTFYLIAVF | 0.163 ± 0.081
RGWGGGTWVKMG | 0.203 ± 0.004
RGYSAIWGCKMN | 0.529 ± 0.077
RIIDRVSRLIML | 0.627 ± 0.032
RKFRAWIRITRT | 0.471 ± 0.025
RLCKGQKYTKIN | 0.155 ± 0.043
RLRWLSPMTHVG | 0.5802 ± 0.0019
RLSGACILLSLV | 0.439 ± 0.026
RLSLCLAVLFLV | 0.146 ± 0.009

Sequence | protein stability index
RPSHTSVYRLLH | 0.337 ± 0.17
RRLAVWCDFRSL | 0.653 ± 0.0095
RRPVHTHTSVSP | 0.701 ± 0.012
RRRGIYARASVV | 0.434 ± 0.023
RSITFFPVCLVK | 0.426 ± 0.013
RSLSFGMVLCYS | 0.401 ± 0.012
RSLSWCTKRRCC | 0.454 ± 0.013
RSSGHLLDGRAF | 0.7353 ± 0.0026
RVGGVVVLGCVG | 0.67072 ± 0.0004
RVGYSIIIIGIE | 0.457 ± 0.029
RVWIVCYHVSSY | 0.349 ± 0.022
RWSEHGFLVFLS | 0.373 ± 0.04
SARSYLTERLLA | 0.239 ± 0.0068
SASPFYLPPPPV | 0.731 ± 0.012
SAVLFLLFVYVR | 0.176 ± 0.023
SCIFVSSYFFVF | 0.307 ± 0.00077
SCLRVYFSVVVS | 0.36 ± 0.027
SCLSLALLVFFG | 0.515 ± 0.039
SFFFSFFPYFFC | 0.561 ± 0.015
SFTVFVVLLFPP | 0.4293 ± 0.00063
SFVGCWFVLLVR | 0.159 ± 0.0049
SFWLFSSIGVCF | 0.5772 ± 0.0052
SGMLVYFGTVCY | 0.511 ± 0.027
SKSRKTGWMLIS | 0.427 ± 0.022
SLFSPPVLATPS | 0.6797 ± 0.0026
SLGHIGFWRFAG | 0.169 ± 0.0063

Sequence | protein stability index
SLLFVFVSVGCI | 0.166 ± 0.023
SLRSLYLLARLS | 0.0971 ± 0.015
SLSPVFVAVWFL | 0.474 ± 0.026
SLVLLLLITFSL | 0.495 ± 0.021
SNFFPVPLLLFR | 0.327 ± 0.031
SPCFLDPPRLIS | 0.536 ± 0.02
SPLHGFLFLVLL | 0.496 ± 0.021
SPLLPPPLLFLS | 0.241 ± 0.033
SRDSLLTLIPSC | 0.697 ± 0.0081
SRLVIGRWSVLV | 0.442 ± 0.0031
SRPEPNGLRKLV | 0.315 ± 0.052
SSAPTIVIWRFS | 0.6081 ± 0.0015
SSGSLLLPRFLT | 0.54 ± 0.037
SSLLPLLAQLVG | 0.411 ± 0.01
SSMSAVFRLQVC | 0.299 ± 0.049
SSRPLSPQSLRL | 0.658 ± 0.032
SSVCLYWCCLFV | 0.5166 ± 0.00058
SSVCYFGLLFIV | 0.139 ± 0.022
SVFRFLFLALLV | 0.18 ± 0.016
SVFVFFGFIDFL | 0.581 ± 0.0099
SVLASFFSAFVC | 0.149 ± 0.0027
SVLLVFRFFWEL | 0.445 ± 0.0082
SVLVWVFGLFVI | 0.495 ± 0.015
SVMTFVFFISAF | 0.396 ± 0.0055
SWRRCLSSIPVA | 0.438 ± 0.012
SWVVLVSFLSWR | 0.424 ± 0.031

Test system: Saccharomyces cerevisiae
Experiment: as above
Details: genetic background: wild type; temperature: 30 C

Sequence | protein stability index
PPSRVSIRLLIR | 0.4017 ± 0.0039
PRFLRWLFSLLI | 0.515 ± 0.032
PRINTFVVVRVC | 0.159 ± 0.042
PSCLLVAPRFSS | 0.755 ± 0.017
PSFSLLRSLTLI | 0.284 ± 0.0073
PTYTKYRTRQIN | 0.0994 ± 0.044
PVILISWQLRCY | 0.0229 ± 0.026
PVPPRVNLLRVS | 0.3959 ± 0.0035
PVWLSFHFFLCA | 0.44 ± 0.061
QIDYSVYIFALG | 0.371 ± 0.026
QRFASFFFLHLS | 0.227 ± 0.0046
QRTNTIINKRIV | 0.565 ± 0.096
RALSLPPLLLVL | 0.423 ± 0.023
RCIFYHSPVLCL | 0.449 ± 0.02
RCQILSYCLLFV | 0.407 ± 0.012
RCSLRLRFIFVR | 0.166 ± 0.0029
RFFFASRYIECF | 0.416 ± 0.11
RFWFTFYLIAVF | 0.103 ± 0.0027
RGWGGGTWVKMG | 0.3012 ± 0.0016
RGYSAIWGCKMN | 0.3812 ± 0.0021
RIIDRVSRLIML | 0.543 ± 0.089
RKFRAWIRITRT | 0.377 ± 0.013
RLCKGQKYTKIN | 0.105 ± 0.015
RLRWLSPMTHVG | 0.463 ± 0.012
RLSGACILLSLV | 0.388 ± 0.081
RLSLCLAVLFLV | 0.205 ± 0.035

Sequence | protein stability index
RPSHTSVYRLLH | 0.2545 ± 0.0022
RRLAVWCDFRSL | 0.45 ± 0.012
RRPVHTHTSVSP | 0.606 ± 0.25
RRRGIYARASVV | 0.382 ± 0.015
RSITFFPVCLVK | 0.382 ± 0.016
RSLSFGMVLCYS | 0.343 ± 0.029
RSLSWCTKRRCC | 0.3718 ± 0.00091
RSSGHLLDGRAF | 0.539 ± 0.096
RVGGVVVLGCVG | 0.476 ± 0.0028
RVGYSIIIIGIE | 0.354 ± 0.0038
RVWIVCYHVSSY | 0.262 ± 0.076
RWSEHGFLVFLS | 0.301 ± 0.021
SARSYLTERLLA | 0.252 ± 0.0087
SASPFYLPPPPV | 0.735 ± 0.024
SAVLFLLFVYVR | 0.254 ± 0.0093
SCIFVSSYFFVF | 0.251 ± 0.02
SCLRVYFSVVVS | 0.359 ± 0.031
SCLSLALLVFFG | 0.411 ± 0.061
SFFFSFFPYFFC | 0.4425 ± 0.0029
SFTVFVVLLFPP | 0.323 ± 0.062
SFVGCWFVLLVR | 0.179 ± 0.036
SFWLFSSIGVCF | 0.512 ± 0.019
SGMLVYFGTVCY | 0.4498 ± 0.0028
SKSRKTGWMLIS | 0.153 ± 0.015
SLFSPPVLATPS | 0.0217 ± 0.0033
SLGHIGFWRFAG | 0.191 ± 0.011

Sequence | protein stability index
SLLFVFVSVGCI | 0.253 ± 0.016
SLRSLYLLARLS | 0.194 ± 0.021
SLSPVFVAVWFL | 0.432 ± 0.013
SLVLLLLITFSL | 0.491 ± 0.017
SNFFPVPLLLFR | 0.383 ± 0.088
SPCFLDPPRLIS | 0.388 ± 0.025
SPLHGFLFLVLL | 0.424 ± 0.021
SPLLPPPLLFLS | 0.211 ± 0.0097
SRDSLLTLIPSC | 0.692 ± 0.037
SRLVIGRWSVLV | 0.318 ± 0.019
SRPEPNGLRKLV | 0.293 ± 0.069
SSAPTIVIWRFS | 0.495 ± 0.027
SSGSLLLPRFLT | 0.387 ± 0.03
SSLLPLLAQLVG | 0.406 ± 0.05
SSMSAVFRLQVC | 0.276 ± 0.017
SSRPLSPQSLRL | 0.553 ± 0.17
SSVCLYWCCLFV | 0.432 ± 0.011
SSVCYFGLLFIV | 0.184 ± 0.0042
SVFRFLFLALLV | 0.191 ± 0.016
SVFVFFGFIDFL | 0.469 ± 0.011
SVLASFFSAFVC | 0.195 ± 0.01
SVLLVFRFFWEL | 0.405 ± 0.098
SVLVWVFGLFVI | 0.446 ± 0.012
SVMTFVFFISAF | 0.344 ± 0.1
SWRRCLSSIPVA | 0.425 ± 0.013
SWVVLVSFLSWR | 0.357 ± 0.0065
